Experiments:
[1] = molecular target: the molecule itself; assay: AUC; sedimentation equilibrium; protein at 6.5, 11.9 and 25.2 μM, 10,000 and 15,000 rpm; global fit to a self-association model; dimer to monomers
[2] = molecular target: the molecule itself; assay: AUC; sedimentation velocity; 13 μM protein in 10 mM HEPES pH 7.4, 120 mM NaCl, 0.25% glycerol, 4°C, 40,000 rpm; c(s) and c(M) distributions (SEDFIT)

Protein	Kd [1]	stoichiometry N [2]
Human ASK1 catalytic (kinase) domain, residues 659-951, phosphatase-treated (domain or fragment, mixture of un- and monophosphorylated protein; Thr838 partially phosphorylated in the crystal, Apoptosis signal-regulating kinase 1 (ASK1, MAP3K5), human, residues 659-951 of the 1,374-residue protein, gi|5174547; Crystallised with 1 mM staurosporine; also called MAP3K5; ASK1 kinase domain; not shown: His6, N-terminal, cleaved) not shown	220 ± 200 nM	2
Human ASK1 catalytic (kinase) domain, homogeneously triphosphorylated (domain or fragment, phosphothreonine at 813, 838 and 842 (autophosphorylation sites identified by mass spectrometry), Apoptosis signal-regulating kinase 1 (ASK1, MAP3K5), human, residues 659-951, gi|5174547; the same recombinant construct as m1, autophosphorylated; also called Tri-phosphorylated ASK1; triphosphorylated ASK1; source: recombinant protein treated with ATP/Mg2+ (autophosphorylated)) not shown	–	2

— paper PMC2100151, “Structural and Functional Characterization of the Human Protein Kinase ASK1” (Structure(London, England:1993), 2007)
